Laboratory results reported in patent US20240391961A1.

T1: 14-3-3ζ nhpSer58 with a FLAG tag at its N-terminus (Homo sapiens (Human)), P63104
T1 chain: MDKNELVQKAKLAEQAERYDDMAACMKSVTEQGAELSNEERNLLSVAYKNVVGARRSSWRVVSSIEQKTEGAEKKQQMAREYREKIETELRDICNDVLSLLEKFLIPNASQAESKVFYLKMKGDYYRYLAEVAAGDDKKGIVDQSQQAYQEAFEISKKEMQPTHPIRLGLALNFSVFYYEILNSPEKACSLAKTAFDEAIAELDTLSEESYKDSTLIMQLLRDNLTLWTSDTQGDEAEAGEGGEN

B1: Serine/arginine-rich splicing factor 10 [OS = Homo sapiens], O75494 1-262 (protein, UniProt O75494 1-262, looked up)
chain: MSRYLRPPNTSLFVRNVADDTRSEDLRREFGRYGPIVDVYVPLDFYTRRPRGFAYVQFEDVRDAEDALHNLDRKWICGRQIEIQFAQGDRKTPNQMKAKEGRNVYSSSRYDDYDRYRRSRSRSYERRRSRSRSFDYNYRRSYSPRNSRPTGRPRRSRSHSDNDRFKHRNRSFSRSKSNSRSRSKSQPKKEMKAKSRSRSASHTKTRGTSKTDSKTHYKSGSRYEKESRKKEPPRSKSQSRSQSRSRSKSRSRSWTSPKSSGH
B2: 14-3-3 protein epsilon [OS = Homo sapiens], P62258 1-255 (protein, UniProt P62258 1-255, looked up)
chain: MDDREDLVYQAKLAEQAERYDEMVESMKKVAGMDVELTVEERNLLSVAYKNVIGARRASWRIISSIEQKEENKGGEDKLKMIREYRQMVETELKLICCDILDVLDKHLIPAANTGESKVFYYKMKGDYHRYLAEFATGNDRKEAAENSLVAYKAASDIAMTELPPTHPIRLGLALNFSVFYYEILNSPDRACRLAKAAFDDAIAELDTLSEESYKDSTLIMQLLRDNLTLWTSDMQGDGEEQNKEALQDVEDENQ
B3: 14-3-3 protein theta [OS = Homo sapiens], P27348 1-245 (protein, UniProt P27348 1-245, looked up)
chain: MEKTELIQKAKLAEQAERYDDMATCMKAVTEQGAELSNEERNLLSVAYKNVVGGRRSAWRVISSIEQKTDTSDKKLQLIKDYREKVESELRSICTTVLELLDKYLIANATNPESKVFYLKMKGDYFRYLAEVACGDDRKQTIDNSQGAYQEAFDISKKEMQPTHPIRLGLALNFSVFYYEILNNPELACTLAKTAFDEAIAELDTLNEDSYKDSTLIMQLLRDNLTLWTSDSAGEECDAAEGAEN
B4: 14-3-3 protein sigma [OS = Homo sapiens], P31947 1-248 (protein, UniProt P31947 1-248, looked up)
chain: MERASLIQKAKLAEQAERYEDMAAFMKGAVEKGEELSCEERNLLSVAYKNVVGGQRAAWRVLSSIEQKSNEEGSEEKGPEVREYREKVETELQGVCDTVLGLLDSHLIKEAGDAESRVFYLKMKGDYYRYLAEVATGDDKKRIIDSARSAYQEAMDISKKEMPPTNPIRLGLALNFSVFHYEIANSPEEAISLAKTTFDEAMADLHTLSEDSYKDSTLIMQLLRDNLTLWTADNAGEEGGEAPQEPQS
B5: GTPase-activating protein and VPS9 domain-containing protein 1 [OS = Homo sapiens] (protein, UniProt Q14C86 1-1478, looked up)
chain: MVKLDIHTLAHHLKQERLYVNSEKQLIQRLNADVLKTAEKLYRTAWIAKQQRINLDRLIITSAEASPAECCQHAKILEDTQFVDGYKQLGFQETAYGEFLSRLRENPRLIASSLVAGEKLNQENTQSVIYTVFTSLYGNCIMQEDESYLLQVLRYLIEFELKESDNPRRLLRRGTCAFSILFKLFSEGLFSAKLFLTATLHEPIMQLLVEDEDHLETDPNKLIERFSPSQQEKLFGEKGSDRFRQKVQEMVESNEAKLVALVNKFIGYLKQNTYCFPHSLRWIVSQMYKTLSCVDRLEVGEVRAMCTDLLLACFICPAVVNPEQYGIISDAPINEVARFNLMQVGRLLQQLAMTGSEEGDPRTKSSLGKFDKSCVAAFLDVVIGGRAVETPPLSSVNLLEGLSRTVVYITYSQLITLVNFMKSVMSGDQLREDRMALDNLLANLPPAKPGKSSSLEMTPYNTPQLSPATTPANKKNRLPIATRSRSRTNMLMDLHMDHEGSSQETIQEVQPEEVLVISLGTGPQLTPGMMSENEVLNMQLSDGGQGDVPVDENKLHGKPDKTLRFSLCSDNLEGISEGPSNRSNSVSSLDLEGESVSELGAGPSGSNGVEALQLLEHEQATTQDNLDDKLRKFEIRDMMGLTDDRDISETVSETWSTDVLGSDFDPNIDEDRLQEIAGAAAENMLGSLLCLPGSGSVLLDPCTGSTISETTSEAWSVEVLPSDSEAPDLKQEERLQELESCSGLGSTSDDTDVREVSSRPSTPGLSVVSGISATSEDIPNKIEDLRSECSSDFGGKDSVTSPDMDEITHGAHQLTSPPSQSESLLAMFDPLSSHEGASAVVRPKVHYARPSHPPPDPPILEGAVGGNEARLPNFGSHVLTPAEMEAFKQRHSYPERLVRSRSSDIVSSVRRPMSDPSWNRRPGNEERELPPAAAIGATSLVAAPHSSSSSPSKDSSRGETEERKDSDDEKSDRNRPWWRKRFVSAMPKAPIPFRKKEKQEKDKDDLGPDRFSTLTDDPSPRLSAQAQVAEDILDKYRNAIKRTSPSDGAMANYESTGDNHDRDLSSKLLYHSDKEVMGDGESAHDSPRDEALQNISADDLPDSASQAAHPQDSAFSYRDAKKKLRLALCSADSVAFPVLTHSTRNGLPDHTDPEDNEIVCFLKVQIAEAINLQDKNLMAQLQETMRCVCRFDNRTCRKLLASIAEDYRKRAPYIAYLTRCRQGLQTTQAHLERLLQRVLRDKEVANRYFTTVCVRLLLESKEKKIREFIQDFQKLTAADDKTAQVEDFLQFLYGAMAQDVIWQNASEEQLQDAQLAIERSVMNRIFKLAFYPNQDGDILRDQVLHEHIQRLSKVVTANHRALQIPEVYLREAPWPSAQSEIRTISAYKTPRDKVQCILRMCSTIMNLLSLANEDSVPGADDFVPVLVFVLIKANPPCLLSTVQYISSFYASCLSGEESYWWMQFTAAVEFIKTIDDRK
B6: WD and tetratricopeptide repeats protein 1 [OS = Homo sapiens] (protein, UniProt Q8N5D0 1-677, looked up)
chain: MAKVNITRDLIRRQIKERGALSFERRYHVTDPFIRRLGLEAELQGHSGCVNCLEWNEKGDLLASGSDDQHTIVWDPLHHKKLLSMHTGHTANIFSVKFLPHAGDRILITGAADSKVHVHDLTVKETIHMFGDHTNRVKRIATAPMWPNTFWSAAEDGLIRQYDLRENSKHSEVLIDLTEYCGQLVEAKCLTVNPQDNNCLAVGASGPFVRLYDIRMIHNHRKSMKQSPSAGVHTFCDRQKPLPDGAAQYYVAGHLPVKLPDYNNRLRVLVATYVTFSPNGTELLVNMGGEQVYLFDLTYKQRPYTFLLPRKCHSSGEVQNGKMSTNGVSNGVSNGLHLHSNGFRLPESRGHVSPQVELPPYLERVKQQANEAFACQQWTQAIQLYSKAVQRAPHNAMLYGNRAAAYMKRKWDGDHYDALRDCLKAISLNPCHLKAHFRLARCLFELKYVAEALECLDDFKGKFPEQAHSSACDALGRDITAALFSKNDGEEKKGPGGGAPVRLRSTSRKDSISEDEMVLRERSYDYQFRYCGHCNTTTDIKEANFFGSNAQYIVSGSDDGSFFIWEKETTNLVRVLQGDESIVNCLQPHPSYCFLATSGIDPVVRLWNPRPESEDLTGRVVEDMEGASQANQRRMNADPLEVMLLNMGYRITGLSSGGAGASDDEDSSEGQVQCRPS
B7: Histone deacetylase complex subunit SAP18 [OS = Homo sapiens] (protein, UniProt O00422 2-153, looked up)
chain: AVESRVTQEEIKKEPEKPIDREKTCPLLLRVFTTNNGRHHRMDEFSRGNVPSSELQIYTWMDATLKELTSLVKEVYPEARKKGTHFNFAIVFTDVKRPGYRVKEIGSTMSGRKGTDDSMTLQSQKFQIGDYLDIAITPPNRAPPPSGRMRPY
B8: transformer-2 protein homolog beta [OS = Homo sapiens] (protein, UniProt P62995 2-288, looked up)
chain: SDSGEQNYGERESRSASRSGSAHGSGKSARHTPARSRSKEDSRRSRSKSRSRSESRSRSRRSSRRHYTRSRSRSRSHRRSRSRSYSRDYRRRHSHSHSPMSTRRRHVGNRANPDPNCCLGVFGLSLYTTERDLREVFSKYGPIADVSIVYDQQSRRSRGFAFVYFENVDDAKEAKERANGMELDGRRIRVDFSITKRPHTPTPGIYMGRPTYGSSRRRDYYDRGYDRGYDDRDYYSRSYRGGGGGGGGWRAAQDRDQIYRRRSPSPYYSRGGYRSRSRSRSYSPRRY
B9: serrate RNA effector molecule homolog [OS = Homo sapiens] (protein, UniProt Q9BXP5 2-876, looked up)
chain: GDSDDEYDRRRRDKFRRERSDYDRSRERDERRRGDDWNDREWDRGRERRSRGEYRDYDRNRRERFSPPRHELSPPQKRMRRDWDEHSSDPYHSGYEMPYAGGGGGPTYGPPQPWGHPDVHIMQHHVLPIQARLGSIAEIDLGVPPPVMKTFKEFLLSLDDSVDETEAVKRYNDYKLDFRRQQMQDFFLAHKDEEWFRSKYHPDEVGKRRQEARGALQNRLRVFLSLMETGWFDNLLLDIDKADAIVKMLDAAVIKMEGGTENDLRILEQEEEEEQAGKPGEPSKKEEGRAGAGLGDGERKTNDKDEKKEDGKQAENDSSNDDKTKKSEGDGDKEEKKEDSEKEAKKSSKKRNRKHSGDDSFDEGSVSESESESESGQAEEEKEEAEEALKEKEKPKEEEWEKPKDAAGLECKPRPLHKTCSLFMRNIAPNISRAEIISLCKRYPGFMRVALSEPQPERRFFRRGWVTFDRSVNIKEICWNLQNIRLRECELSPGVNRDLTRRVRNINGITQHKQIVRNDIKLAAKLIHTLDDRTQLWASEPGTPPLPTSLPSQNPILKNITDYLIEEVSAEEEELLGSSGGAPPEEPPKEGNPAEINVERDEKLIKVLDKLLLYLRIVHSLDYYNTCEYPNEDEMPNRCGIIHVRGPMPPNRISHGEVLEWQKTFEEKLTPLLSVRESLSEEEAQKMGRKDPEQEVEKFVTSNTQELGKDKWLCPLSGKKFKGPEFVRKHIFNKHAEKIEEVKKEVAFFNNFLTDAKRPALPEIKPAQPPGPAQILPPGLTPGLPYPHQTPQGLMPYGQPRPPILGYGAGAVRPAVPTGGPPYPHAPYGAGRGNYDAFRGQGGYPGKPRNRMVRGDPRAIVEYRDLDAPDDVDFF

Biological target: T1, 14-3-3ζ nhpSer58 with a FLAG tag at its …
Conditions: remark: other sources report otherwise

| FC | Binder |
| --- | --- |
| 0.0496 fold | B1 |
| 0.0482 fold | B2 |
| 0.0473 fold | B3 |
| 0.0526 fold | B4 |

Biological target: 14-3-3ζ nhpSer58 with a FLAG tag at its N-terminus (Homo sapiens (Human)) (UniProt P63104)
Conditions: not given

| FC | Binder |
| --- | --- |
| 0.177 fold | B5 |
| 0.202 fold | B6 |
| 0.187 fold | B7 |
| 0.194 fold | B8 |
| 0.12 fold | B9 |
